Experimental findings from paper PMC6539110, “A Novel G-Quadruplex Binding Protein in Yeast—Slx9” are described below.

For data set [1], the target named is T1, Slx9 (6xHis-Slx9) (Saccharomyces cerevisiae, UniProt P53251 1-210).
T1 sequence: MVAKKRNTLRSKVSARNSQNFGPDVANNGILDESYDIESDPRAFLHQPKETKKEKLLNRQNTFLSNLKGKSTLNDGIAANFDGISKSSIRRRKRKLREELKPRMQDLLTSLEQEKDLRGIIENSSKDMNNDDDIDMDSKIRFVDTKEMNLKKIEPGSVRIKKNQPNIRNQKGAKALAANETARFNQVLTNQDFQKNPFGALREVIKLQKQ
The experiment in a line: filter binding; Filter binding: 50 mM Tris/HCl pH 8.0, 125 mM KCl, 5 mM DTT, 10% glycerol, 10 nM DNA, 0-65 uM Slx9, on ice 30 min; MST: 25 nM Cy5-DNA, NaCl (buffer partly given), 0.5% BSA, 0.05% Tween-20, 24 C. The settings on record: protein: recombinant, tags: 6xHis (pET28a EcoRI/NotI; about 30 kDa).

The target in data set [2] is T1, Slx9 (6xHis-Slx9). As to the kind of experiment: filter binding; listed as G4TP2; Filter binding: 50 mM Tris/HCl pH 8.0, 125 mM KCl, 5 mM DTT, 10% glycerol, 10 nM DNA, 0-65 uM Slx9, on ice 30 min; MST: 25 nM Cy5-DNA, NaCl (buffer partly given), 0.5% BSA, 0.05% Tween-20, 24 C. The settings on record: protein: recombinant; tags: 6xHis (pET28a EcoRI/NotI; about 30 kDa); label: 5' 32P; folded G4.

Residue numbers refer to the chain shown, from its start.

B1: G4IX (structured_DNA)
DNA: AAAAAAAAAAGGGTACGGTGGGTAATAAGGGAAGGTATCGGG
Usually Kd stands for a measure of binding affinity in units of concentration. With B1, the Kd with Slx9 (6xHis-Slx9) [1] (5' Cy5 (MST), folded G4) came out at 0.55 ± 0.08 µM.

B2: G4TP (G4TP1/G4TP2 in Fig. 1C) (structured_DNA)
DNA: AAAAAAAAAAGGGGGAGCTGGGGTAGATGGGAATGTGAGGG
On to B2, for which the Kd with Slx9 (6xHis-Slx9) [2] came out at 0.53 ± 0.1 µM.

B3: dsDNA (dsDNA)
DNA 1: GACGCTGCCGAATTCTGGCTTGCTAGGACATCTTTGCCCACGTTGACCCG
DNA 2: CGGGTCAACGTGGGCAAAGATGTCCTAGCAAGCCAGAATTCGGCAGCGTC
Take B3: the Kd with Slx9 (6xHis-Slx9) [1] (label: 5' 32P, blunt) amounted to 5.27 ± 1.18 µM.

B4: 4-fork (4-way junction) (dsDNA)
DNA 1: B3 DNA 1
DNA 2: CGGGTCAACGTGGGCAAAGATGTCCTAGCAATGTAATCGTCTATGACGTC
DNA 3: GACGTCATAGACGATTACATTGCTAGGACATGCTGTCTAGAGACTATCGC
DNA 4: GCGATAGTCTCTAGACAGCATGTCCTAGCAAGCCAGAATTCGGCAGCGTC
B4: the Kd with Slx9 (6xHis-Slx9) [1] (label: 5' 32P, four-way junction 1:2 2:3 3:4 4:1) turned out to be 3.72 ± 0.62 µM.

B5: fork (dsDNA)
DNA 1: B3 DNA 1
DNA 2: B4 DNA 2
Consider B5, for which the Kd with Slx9 (6xHis-Slx9) [1] (label: 5' 32P, fork 1:2, 5' arm of strand 1 and 3' arm of strand 2 unpaired (about 19 nt)) is 4.21 ± 0.64 µM.

B6: bubble (dsDNA)
DNA 1: CGGGTCAACGTGGGCAAAGCCAATGCGATCGGCCAGAATTCGGCAGCGTC
DNA 2: B3 DNA 1 with A25C
As for B6, the Kd with Slx9 (6xHis-Slx9) [1] (label: 5' 32P, blunt, central mismatched bubble) was found to be 1.73 ± 0.42 µM.

B7: G4mut (mut-G4IX) (ssDNA)
DNA: AAAAAAAAAAGCGTACGGTGCGTAATAACGCAAGCTATCGCG
In the case of B7, the Kd with Slx9 (6xHis-Slx9) [1] (5' Cy5 (MST), cannot fold G4) turned out to be 15.7 ± 3.57 µM.
